This passage reports protein production results from a protein production outcome set (Wang et al. 2014).
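Further: failed if final PepcDB status was selected cloned or expressed and not failed if soluble or beyond.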

This series in a line: label from the status in PepcDB records.
With “PGLVDVHTHFMPERVLRKVWDYFDGLGPLTGGLEWPITYRSDEDQRLATIREFGVRAFTAMLYPHKAGMARWLNSWAVDFARRTPDCLHTATLFPEPGVEAYVLEAVEQGARVFKAHVQVGAYDPADELLDPVWGLLAEAGVPVVMHCGSGPAPGKHTGPGPVAQVLARHPRLRLVVAHLGMPEYEDFLDLAERYGEVRLDTTMAFTDFSERLAPFPRGARPRLAGLGDRILLGTDFPNIPYRYVDQLYALERLGLGDDWLRSVCHGNGARLFGL”, the protein production entry is “failed”.
On to “PGYTLTRELPLTEYRALYRAAEDTWAARLDWSPEQYDAHFAREDVRLLALRDSEGRPVAFAELELCAPDSRAELTHLAVHPAQRGQGLGRALLALAAAEAAQSPEIRTLRARAHDHMSAARQLYARAGLSHCRAVVTSLREG”, for which the protein production entry is listed as “failed”.
As for “PHSMEPQVTLNVTFKNEIQSFLVSDPENTTWADIEAMVKVSFDLNTIQIKYLDEENEEVSINSQGEYEEALKMAVKQGNQLQMQVHEG”, the entry is “not failed”; as for “PKRTAATAGALMIGVAVVSLFTVFGASLKATMDQTVSRSFAGDVAVSAPSFGAGGSGLSPRLAGAIQELPEVDTAVGLGRGVAEVDGQGRALTVTDPAALNRTFDLGAVHGSLDDLGTDGIAITENEADERGLTTGDTTRLTFTDGHSGTFTVRAVYGQSELAGDYVITRAAWAPHRTQDSDTLVAVAFEDGVGADAGKAAVEKVADRYGNPEVQTREEYAESSAGGIDMMLTLVYALLALAVLIALLGISNTLTLAVHERTRELGLLRAVGQTRAQLRAMVRWESVLVAAFGTVGGLGLGAFLGWVLVAASDGASDSAFAFAVPPAQLAVVALVGLAAGALAGVRPARRASRLDVLRAVAT”, “failed”.
As for “PLLIFPPWINKFYIMDLRPENSMIRWLTAQGFTVFVASWVNPDQTLAAKTFEDYMVEGIYDAAQQVMTQCGVDRVNTVGYCIGGTLLSVALAHMAARGDKRINSATFFAAQQDFAEAGDLLLFTNEEWLQSIEQQMDQAGGFLPSQSMADTFNALRGNDLIWSFFVSNYLMGKEPRPFDLLFWNADQTRMPKALHLFYLRNFYKDNALTTGKLSLGGERLDLSKVKIPIYVQSSKDDHIAPYRSVYRGARAFGGPVTFTMAGSGHI”, the entry is “failed”.
As for “PMNGKEKAASYDKVVDVDVKLGQVSVKNPKGTAHEMPKTFTFDAVYDWNAKQFELYDETFRPLVDSVLQGFNGTIFAYGQTGTGKTYTMEGIRGDPEKRGVIPNSFDHIFTHISRSQNQQYLVRASYLEIYQEEIRDLLSKDQTKRLELKERPDTGVYVKDLSSFVTKSVKEIEHVMNVGNQNRSVGATNMNEHSSRSHAIFVITIECSEVGLDGENHIRVGKLNLVDLAGSERQAKTGAQGERLKEATKINLSLSALGNVISALVDGKSTHIPYRDSKLTRLLQDSLGGNAKTVMVANVGPASYNVEETLTTLRYANRAKNIKNKPRVNEDPKDAL”, the entry is “failed”; as for “PNVVKMNKPFISLCPEITRAHALTLMDWLEDEHVTRHLSDSRHVSRFIEQVIDRVQLPVLTHLFNQGGRFFMAYDRHDVPVGFVRLVKTGSDCEIVLVIGNRDNWGRKLGASAIREGMKLAFFEMRAARLIAKVHPDNERSLNAFLRCGFVLE”, “not failed”.
Regarding “PPHYDYAIGIRGDSMLPKYEQGDMLYIVDKGMSTYSGQLCIVVHNGNTYFKKVYTEHDGLRLVSLNKKYSDIFIGYPPAEDTYIKIYDVVGSFTPIEF”, the protein production entry was “failed”.
With “PPSTLIGPGDDAALVRADDGRVAVSADMLVQDRHFRLDWSSPRDVGRKAVAQNAADVAAMGARPTAFLVSLGLPPDTSIDVADGISAAIGESAEELGAGVVGGDLVQAGQVVISVTVLGDLGGRS”, the protein production result is given as “failed”.
With “PQAMIIDVVADVVCPWCYLGWRRLKSAIALRPDLKAQLIWRPYQLDPTLPEDGVDRKAYMAQKFKDPEKLKAVHTALVEGGAEEGIVFNFEAIALSPNTNAAHRLIRWALTAGVQDHVVEALFKAYFEQGLDIGDPIVLGDIAEAAGMERLVVLQLLSEGADKEAVAREHAMAVQGGVTGVPFAIFAGKVAVVGAESPERIAQAIDQALAA”, the protein production entry was “failed”.
As for “PREPVVNDEMCDVCEVWTAESLFPCRVCTRVFHDGCLRRMGYIQGDSAAEVTEMAHTETGWSCHYCDNINLLLTEE”, the entry is “not failed”; as for “PRKASRKPPREESSATCVLEQPGALGAQILLVQRPNSGLLAGLWEFPSVTWEPSEQLQRKALLQELQRWAGPLPATHLRHLGEVVHTFSHIKLTYQVYGLALEGQTPVTTVPPGARWLTQEEFHTAAVSTAMKKVFRVYQGQ”, “not failed”; as for “PRMIVFGAIDFASALARAGKFLGHHVTVCDARPVFATPARFPDADEVVVEWPHEYLARTAVDARTVLCVLTHDAKFDIPLLRLALRLPVAYVGAMGSRRTHLDRAARLREAGV”, “failed”.
With “PSLPGIEAAARYLPATQGMEIGGDFYDLVATVGRAAAVIGDVQGHNVTAAGLMGQIRTAVRAYTTVGQAPGQVMRSTNRLMIDLGTDLFASCVYLRLDPARQRVVMARAGHPPPLLRKPDGQVRVLDLAGGPLLGIDADATYTTTEFALAPGSVLALYTDGLIESPGIDIEDALAELGERLAESGDEPLDELADRLVRHTATAEERLDDIALLLLRARA”, the protein production entry is on record as “failed”.
Turning to “PSMPASPVLTKAGITWLSLQWSKPSGTPSDEGISYILEMEEETSGYGFKPKYDGEDLAYTVKNLRRSTKYKFKVIAYNSEGKSNPSEVVEFTTCPD”, the protein production result is on record as “not failed”.
Take “PTRQVLQGSRCRLEPLTLAHASDLFAAHQLAPDARSWTWLLREPESNLAEFSAWVEQVATLADPIHFAVVDQQRGKAVGSLALMRIDIAHGVVEVGHVHFSPLLSRTAMATEAHWLLMQYVFDTLGYRRYEWKCNSLNIPSARAARRLGFQYEGRFRQALVSKGHNRDTDWFSVIDGEWPELD”: the protein production result is “failed”.
The same measure for “PTSSTTAALVMGDALAVALLEARGFTAEDFALSHPGGALGRKLLLRVNDIMHTGDEIPHVGLQATLRDALLEITRKNLGMTAICDDDMNIIGIFTDGDLRRVFDTGVDMRDASIADVMTRGGIRIRPGTLAVDALNLMQSRHITCVLVADGDHLLGVVHMHDLLRA”: “not failed”.
For “PTSSTTATLVMGDALAVALLKARGFTAEDFALSHPGGALGRKLLLRVSDIMHTGDEIPHVNKHATLRDALLEITRKNLGMTVICDESMKIDGIFTDGDLRRVFDMGGDMRQLGIAEVMTPGGIRVRPGILAVDALNLMQSRHITSVLVADGDQLLGVLHMHDLLRA”, the protein production entry is on record as “failed”.
As for “PVLTQTSEQAPSSAPRDVQARMLSSTTILVQWKEPEEPNGQIQGYRVYYTMDPTQHVNNWMKHNVADSQITTIGNLVPQKTYSVKVLAFTSIGDGPLSSDIQVITQTG”, the entry is “not failed”; as for “PVTQVMTPRPVVFRVDATMTINEFLDKHKDTPFSRPLVYSEQKDNIIGFVHRLELFKMQQSGSGQKQLGAVMRPIQVVLNNTALPKVFDQMMTHRLQLALVVDEYGTVLGLVTLEDIFEHLVGE”, “not failed”.
The same measure for “PVVVAVGAHREAAAVVDTAARLARDTASPLEVVHVRRTAVVEEQAADTETDEQAKAAVTAHLDRLGGMGVTATGQILTGVGDHAAAGRALARHAAEVGARTVAVGRSPRGPLAQFADGSFTSALTHAATCTVVLVDPNAEPR”: “failed”; for “QAELMTLTIVKGAQGFGFTIADSPTGQRVKQILDIQGCPGLCEGDLIVEINQQNVQNLSHTEVVDILKDCPIGSETSLIIHRG”: “not failed”; for “QDWLTFQKKHITNTRDVDCDNIMSTNLFHCKDKNTFIYSRPEPVKAICKGIIASKNVLTTSEFYLSDCNVTSRPCKYKLKKSTNKFCVTCENQAPVHFVGVGSC”: “not failed”.
As for “QGHLVHMTVVSGSNVTLNISESLPENYKQLTWFYTFDQKIVEWDSRKSKYFESKFKGRVRLDPQSGALYISKVQKEDNSTYIMRVLKKTGNEQEWKIKLQVLDPVPKPVIKIEK”, the protein production result is on record as “not failed”.
Regarding “QHDSSRKLGLLQEMIGGGWWRYWAEQELFELAPALHDSLGLTGEYRRVPLEHLQGLLQPADADELGLRLRASLRSGQALAQDLCLRQPDSRGERRWLRIEGRPLGRGSALGLSGVLLDISEGRRQEER”, the protein production entry was “failed”.
For “QHTEERELKKRLMNTARTVSEMTEVKEALARKKQTEAVRHAVEEIRMINEADYIVVMDMNHIRYTHPVSTSIGKKSEGADEEAAFAEHIYFSEAKGEIGTAVRAFYPVKDQDLNQIGVVLVGKTLPGIADILLHLKRD”, the protein production entry is reported as “not failed”.
As for “QKDANASSEFYINKLGQTQELEDQQTYKLLAARVLIRENKVEQSAALLRELGELNDAQKLDRALIEARISAAKNANEVAQNQLRALDLNKLSPSQKSRYYETLAIVAENRKDMIEAVKARIEMDKNLTDVQRHQDNIDKTWALLRSANTGVINNASDEGNAALGGWLTLIKAYNDYIRQPVQLSQALQSWKNAYPNHAAATLFPKELLTLLNFQQTNVSQIGLLLPLSGDGQILGTTIQSGFNDAKGNSTIPVQVFDTSMNSVQDIIAQAKQAGIKTLVGPLLKQNLDVILADPAQIQGMDVLALNATPNSRAIPQLCYYGLSPEDEAESAANKMWNDGVRNPLVAMPQNDLGQRVGNAFNVRWQQLAGTDANIRYYNLPADVTYFVQENNSNTTALYAVASPTELAEMKGYLTNIVPNLAIYASSRASASATNTNTDFIAQMNGVQFSDIPFFKDTNSPQYQKLAKSTGGEYQLMRLYAMGADAWLLINQFNELRQVPGYRLSGLTGILSADTNCNVERDMTWYQYQDGAIVPVAN”, the entry is “failed”; as for “QKNPDSYNGAVRENYTWSQDYTDLEVRVPVPKHVVKGKQVSVALSSSSIRVAMLEENGERVLMEGKLTHKINTESSLWSLEPGKCVLVNLSKVGEYWWNAILEGEEPIDID”, “not failed”.
As for “QLPSYRFNPNNHQSEQTLCVVCMCDFESRQLLRVLPCNHEFHAKCVDKWLKANRTCPICRAD”, the entry is “not failed”; as for “QLRDFSSIIQTCSGNIQRISQATAQIKNLMSQLGTKQDSSKLQENLQQLQHSTNQLAKETNELLKELGSLPLPLSTSEQRQQRLQKERLMNDFSAALNNFQAVQRRVSEKEKESIAR”, “not failed”; as for “QLREIVEKVSRVDDVHLALDILVKETCAALRTECCTIYLANEEMQRLELMATQGLIFEGDSIHINFNEGLVGLVKRSAEPLNLAEASKHPEFKFFPQLGEQVYHSFLATPIIHRKQVLGVLVIQQKTPRLFSEMEESFLVTLSAQLAVIIAHAQSLGHWQ”, “failed”.
Take “QLSMLNPQKPMRRSEQHIARQVFSGLTRLDEEEQLQPDLAHAWQALSDTHWRFYLRPGVRFHNGNLLTTELIVQNLWQLRLLNLFAHIDRVDSPYPWAVDVHLQKPDTRLPLLLAEACAKILPAESDRNPDFDLMPVGTGPYKVVLND”: the protein production result is reported as “failed”.
